Where a chain is given by its changes, count along the chain named.
B1: hN1S3-133 (scFv, V domains shown)
VH: QVQLVQSGPEVKKPGTSVKVSCKASGFTFTSSAVQWVRQARGQRLEWIGWIVVGSGNTNYAQKFQERVTITRDMSTSTAYMELSSLRSEDTAVYYCVADTVYWGQGTLVTVSS
VL: QSVLTQPPSVSEAPRQRVTISCSGSSSNIGNNAVNWYQQLPGEAPKLLIYYDDLLPSGVSDRFSGSKSGSSASLAISGLQAEDEADYYCATWDDSLNAWVFGGGTKVTVL
notes: phage scFv
B2: N1wc15 (scFv, V domains shown)
VH: QVQLQQSGAEVKKPGASVKVSCKASGYNFTGYYMHWVRQAPGQGLEWMGWINPNSGGTNYAQKFQGRVTMTRDTSISTAYMELSRLRSDDTAVYYCATDSFDYWGQGTMVTVSS
VL: not shown
notes: phage scFv
B3: N1wc476 (scFv, V domains shown)
VH: B2 VH with Q1E, Q5V, M109L
VL: QAVLTQPSSVSGTPGQTVTISCSGSNSNIGNNYVYWYQQLPGSAPKVVIYRNHQRPSGVPDRFSGSKSGTAASLAISGLRSEDEADYYCASWDDSLSGLVFGGGTKLTVL
notes: phage scFv
B4: N1wc72 (scFv, V domains shown)
VH: B2 VH with Q1E, Q5V, Q106K
VL: QPVLTQPPSASGTPGQRVTISCSGSYSNIGSNYVYWYQQFPGTAPKLLIYTNNQRPSGVPDRFSGSKSGSSASLAISGLRSEDEADYYCAAWDDSVGVLLFGGGTKVTVL
notes: phage scFv
B5: N1wc131 (scFv, V domains shown)
VH: B2 VH with Q1E, Q5V, V11A, M109L
VL: SYELTQPPSASGTPGQRVTISCSGTSSNIGINYVYWYQQLPRTAPKLLIYYNNQRPSGVPDRFSGSRSGTSASLAISGLRSEDEADYYCAAWDDSLSGLVFGTGTKLTVL
notes: phage scFv
B6: hN1S3-141 (scFv, V domains shown)
VH: B2 VH with Q5V, M34I, T69I, Q106R, M109L
VL: B4 VL with P2S, V107L
notes: phage scFv
B7: N1wc403 (scFv, V domains shown)
VH: B2 VH with Q1E, Q5V, Q106R, M109L
VL: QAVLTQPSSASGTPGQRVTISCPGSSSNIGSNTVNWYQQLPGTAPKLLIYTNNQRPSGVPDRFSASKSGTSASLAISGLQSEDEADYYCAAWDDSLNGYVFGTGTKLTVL
notes: phage scFv
B8: hN1S3-001 (scFv, V domains shown)
VH: B2 VH with Q1E, Q5V
VL: not shown
notes: phage scFv
B9: N1wc135 (scFv, V domains shown)
VH: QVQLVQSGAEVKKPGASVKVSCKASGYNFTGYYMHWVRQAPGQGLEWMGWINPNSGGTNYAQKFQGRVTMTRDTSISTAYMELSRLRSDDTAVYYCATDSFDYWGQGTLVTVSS
VL: LPVLTQPPSASGTPGQRVIISCSGSSSNIGSNYVYWYQQLPGTAPKLLIYRNNQRPSGVPDRFSGSKSGTSASLAISGLRSEDEADYHCAAWDDSLSGVVFGGGTKLTVL
notes: phage scFv
B10: hN1S3-055 (scFv, V domains shown)
VH: B2 VH with Q5V, L45P, Q106R
VL: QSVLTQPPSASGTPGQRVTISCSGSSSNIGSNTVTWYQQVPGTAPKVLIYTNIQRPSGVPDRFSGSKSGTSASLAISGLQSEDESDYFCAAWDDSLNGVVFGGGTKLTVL
notes: phage scFv
B11: N1wc516 (scFv, V domains shown)
VH: B2 VH with Q1E, Q5V, Q6E, T69I, R87T, Q106R, M109L
VL: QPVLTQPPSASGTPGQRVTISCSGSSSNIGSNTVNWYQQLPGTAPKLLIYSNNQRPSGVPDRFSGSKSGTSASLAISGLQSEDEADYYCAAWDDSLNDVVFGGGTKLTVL
notes: phage scFv
B12: N1wc633 (scFv, V domains shown)
VH: B2 VH with Q106R, M109L
VL: QAVLTQPSSASGTPGQRVTISCSGSSSNIGSYTVNWYQQVPGTAPKLLIYSNNQRPSGVPERFSGSKSGTSASLAISGLQSEDEADYYCAAWDDSLSDVLFGGGTKVTVL
notes: phage scFv
B13: hN1S3-023 (scFv, V domains shown)
VH: B2 VH with Q1E, Q5V
VL: not shown
notes: phage scFv
B14: hN1S3-036 (scFv, V domains shown)
VH: B2 VH with Q1E, Q5V, Q106R
VL: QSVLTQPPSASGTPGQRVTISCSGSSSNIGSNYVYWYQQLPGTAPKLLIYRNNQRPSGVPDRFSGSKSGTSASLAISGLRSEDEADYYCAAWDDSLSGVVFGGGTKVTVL
notes: phage scFv
B15: hN1S3-038 (scFv, V domains shown)
VH: B2 VH with Q1E, Q5V, T69I, R87T, Q106R, M109T, S114R
VL: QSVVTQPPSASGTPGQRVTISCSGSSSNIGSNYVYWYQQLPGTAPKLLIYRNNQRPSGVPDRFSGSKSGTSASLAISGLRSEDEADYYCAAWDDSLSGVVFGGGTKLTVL
notes: phage scFv
B16: N1wc248 (scFv, V domains shown)
VH: B2 VH with Q1E, Q5V, T91S, Q106R, M109L
VL: B9 VL with L1Q, P2S, I19T, Y33S, L40F, G69D, H88Y, A91T
notes: phage scFv
B17: N1wc540 (scFv, V domains shown)
VH: B2 VH with Q1E, Q5V
VL: B12 VL with V107L
notes: phage scFv
B18: N1wc102 (scFv, V domains shown)
VH: B2 VH with Q5V, S17P, T69A
VL: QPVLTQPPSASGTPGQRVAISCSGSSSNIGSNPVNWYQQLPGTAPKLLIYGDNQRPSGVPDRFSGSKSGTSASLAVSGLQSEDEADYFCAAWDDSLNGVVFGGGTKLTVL
notes: phage scFv
B19: N1wc572 (scFv, V domains shown)
VH: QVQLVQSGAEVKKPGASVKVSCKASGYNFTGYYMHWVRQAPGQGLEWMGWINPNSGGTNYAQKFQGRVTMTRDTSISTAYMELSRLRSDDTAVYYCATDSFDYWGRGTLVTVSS
VL: LPVLTQPPSASGTPGQRVTISCSGSSSNIGSNPVNWYQQLPGSAPKLLVYSDDQRPSGVPDRFSGSKSGASASLAISGLQSEDESDYYCAAWDDSLNAVVFGGGTKVTVL
notes: phage scFv
B20: N1wc624 (scFv, V domains shown)
VH: B2 VH with R87G, Q106R, M109L
VL: not shown
notes: phage scFv
B21: hN1S3-083 (scFv, V domains shown)
VH: QVQLQQSGPGLVKPSQTLSLTCAISGDSISSSSATWNWIRQSPSRGLEWLGRTYYRSKWYNDYAVSVKSRITIDPDTSKNQFSLQLNSVTPEDTAVYYCARQLGGRIEFWGQGTLVTVSS
VL: QSVLTQPPSASGSPGRSVTISCTGTSRDVGAYNYVSWYQQHPGEAPKLLISEVTKRPSGVPARFSASKSGNTASLTISGLQAEDEGDYYCSSYAGSDSWVFGGGTKLTVL
notes: phage scFv
B22: hN1S3-077 (scFv, V domains shown)
VH: EVQLVQSGAEVKKPGAPVKVSCKTSGYGFSNYYMHWVRQAPGQGLEWLGMINPSDGSQHFAQRFRDRVSFTSDTSTSAVYMELAGLRSDDTAVYYCAREKANSMYFDYWGQGTLVTVSS
VL: QSVVTQPPSLSAAPGQRVTISCSGSHSNIGNFYVSWYQQVPGAAPKLLIYDNNERPSGIPDRFSGSKSGTSATLDITGLQTGDEADYYCSTWDRSLSASVFGSGTKLTVL
notes: phage scFv
B23: hN1S3-130 (scFv, V domains shown)
VH: KVQLVQSGAEVKKPGASVKVSCKASGYTFTDFYIHWVRQAPGQGLEWMGWINSKSGDTHYAQKFQGRVTLTRDTSTDTAYMELSRLTSDDTAVYYCARGAYDYVWGSSRYVADAFDIWGRGTMVTVSS
VL: DIVMTQSPSTLSASVGDRVTITCRASQGISSWLAWYQQKPGRAPKVLIYKASTLESGVPSRFSGSGSGTDFTLTISSLQPEDFATYYCQQSYSTPWTFGQGTKLEIK
notes: phage scFv

biological target: T1, human full-length Notch3 with C-terminal FLAG tag, stably expressed on 293 FlpIn (TREx) cells (human, UniProt Q9UM47 40-2321); assay: FACS, phage scFv
T1 construct: whole, on cells; made by the same strategy as the Notch1 line; also called 293-N3; hN3

| Binder | binding result |
| --- | --- |
| B1 | binds |
| B2 | binds |
| B3 | binds |
| B4 | binds |
| B5 | binds |
| B6 | binds |
| B7 | binds |
| B8 | binds |
| B9 | binds |
| B10 | binds |
| B11 | binds |
| B12 | binds |
| B13 | binds |
| B14 | binds |
| B15 | binds |
| B16 | binds |
| B17 | binds |
| B18 | binds |
| B19 | binds |
| B20 | binds |
| B21 | binds |
| B22 | binds |
| B23 | binds |

biological target: T2, human full-length Notch1 with C-terminal FLAG tag, stably expressed on 293 FlpIn (TREx) cells (human, UniProt P46531 19-2555); assay: FACS, phage scFv
T2 construct: tetracycline/doxycycline-induced expression from pcDNA5/FRT/TO-HN1+FLAG; also called hN1; 293_N1

| Binder | binding result |
| --- | --- |
| B2 | binds |
| B7 | binds |
| B8 | binds |
| B9 | binds |
| B10 | binds |
| B11 | binds |
| B12 | binds |
| B13 | binds |
| B14 | binds |
| B15 | binds |
| B16 | binds |
| B17 | binds |
| B18 | binds |
| B19 | binds |
| B20 | binds |

Reference: patent publication US20110286916A1 (published 2011)
